US20170088585A1

Molecular target: Aβ40 (UniProt P05067)
Assay: cell-based or functional assay

Chain of Aβ40 (P05067 672-711 limits assumed): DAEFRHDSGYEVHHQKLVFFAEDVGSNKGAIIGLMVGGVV

Row | Substance | Inhibition at 1:1 (ThT assay, Aβ:cyclic peptide) | Inhibition at 1:1/3 (ThT assay, Aβ:cyclic peptide)
1 | [lJwHsK]: Cyclo-D-leucine-L-noreucine-D-tryptophan-L-histidine-D-serine-L-lysine (peptide) | 69% | 37%
2 | [lZwHsK]: Cyclo-D-leucine-L-2-aminooctanoic acid-D-tryptophan-L-histidine-D-serine-L-lysine (peptide) | 55% | 42%
